Columns and labels:
Assay type in all cases: cell-based, human
MMP-1 mRNA = MMP-1 mRNA by qRT-PCR in stably transfected MDA-231 cell lines; settings: for Copies of MMP-1 mRNA per pg GAPDH mRNA: average ± S.D.
Protocol: Transfection of NIH/3T3 and MDA-231 Cells. NIH/3T3 cells were transiently transfected with LIPOFECTAMINE™ 2000 (INVITROGEN™, Carlsbad, Calif.) along with 0.5 μg peGFP, 0.5 μg pCMV-MMP-1, and 2 μg PSUPER™-MMP-1 shRNA or PSUPER™ with no insert. Transfection efficiency was monitored using eGFP signal. Total cellular RNA was harvested 48 hours after transfection and analyzed for MMP-1 mRNA by real-time RT-PCR. MDA-231 cells were stably transfected in triplicate with LIPOFECTAMINE™ 2000 (INVITROGEN™, Carlsbad, Calif.) and 2 μg of the PSUPER™.Retro.Neo.GFP plasmid containing the MMP-1 shRNA, the scrambled sequence or just the empty vector. Stable cell lines were selected by growth in the presence of 1 mg/mL G418 (STRATAGENE®, La Jolla, Calif.). Individual, stable cell lines were isolated with cloning disks according to the manufacturer's instructions (PGC Scientifics, Frederick, Md.).
RNA Isolation and Real-Time RT-PCR.
After initial neomycin selection and isolation of individual stable cell lines, MMP-1 mRNA and protein levels were determined using quantitative RT-PCR (qRT-PCR) and ELISA. MMP-1 mRNA levels were measured in RNA harvested from stably transfected cell lines after a 24 hour incubation in serum-free medium and were normalized to GAPDH mRNA levels. MMP-1 protein levels were measured in the serum-free media of the cell lines after 24 hours of incubation and were normalized to total protein content of the cells. The ELISA measured total (active and zymogen) forms of MMP-1 protein. […] To control for differences introduced into the cell lines during selection, these three individual cell lines for each group were pooled, and all subsequent experiments were performed on pooled cells.

MMP-9 mRNA = test: Specificity qRT-PCR, MMP-9 mRNA in stable MDA-231 cells; settings: stable MDA-231 cell lines, 24 hour serum-free; group average ± S.D.; P=0.1 vs empty vector
Text: (§1) RNA Isolation and Real-Time RT-PCR. […] Real-Time PCR Primer Sequences. […] ID NO:7; MMP-1 reverse [NT] ID NO:8; MMP-2 forward [NT] ID NO:9; MMP-2 reverse [NT] ID NO:10; MMP-9 forward [NT] ID NO:11; MMP-9 reverse [NT] ID NO:12; MMP-13 forward [NT], SEQ ID NO:13; MMP-13 reverse [NT] ID NO:14; MMP-14 forward [NT] ID NO:15; MMP-14 reverse [NT] ID NO:16; GAPDH forward [NT] ID NO:17; GAPDH reverse [NT] ID NO:18; eGFP forward [NT] ID NO:19; eGFP reverse [NT] ID NO:20. Real-Time PCR Standards.

MMP-1 protein = test: Western blot of MMP-1 protein in culture medium; settings: MDA-231 cells producing the shRNA; 24 hours
Protocol: Western Blot Analysis. MDA-231 cells were cultured in 1 mL serum-free DMEM/F12 medium in six-well plates in the presence or absence of a collagen gel, with or without aprotinin (50 U/mL; Sigma, St. Louis, Mo.). After 24 hours, medium was harvested, proteins precipitated with cold 10% trichloroacetic acid, and resuspended in 50 μL SDS loading buffer (PROMEGA®, Madison, Wis.). Following SDS-PAGE and transfer to a PVDF membrane (IMMOBILON™-P; MILLIPORE™, Bedford, Mass.), the membrane was incubated in a 5% milk, Tris-buffered saline solution with 0.1% TWEEN™ (milk TBST) for 1 hour. The membrane was probed with a MMP-1 polyclonal antibody (CHEMICON®, Temecula, Calif.) diluted 1:5000 in milk TBST overnight at 4° C. The membrane was washed three times with TBST, and a 1:2000 dilution of goat anti-rabbit horseradish peroxidase (HRP) conjugated antibody (CELL SIGNALING TECHNOLOGY®, Beverly, Mass.) in milk TBST was added for 60 minutes. The blot was washed three times with TBST, and HRP activity was detected with the WESTERN LIGHTNING® chemiluminescence reagent according to the manufacturer's instructions (PERKINELMER®, Boston, Mass.).
The three MMPs primarily responsible for degrading type 1 collagen are MMP-1, MMP-13, and the membrane bound MT1-MMP (Stamenkovic (2003) J. Pathol. 200:448-64). […]

MMP-2 mRNA = test: Specificity qRT-PCR, MMP-2 mRNA in stable MDA-231 cells; settings: stable MDA-231 cell lines, 24 hour serum-free; group average ± S.D.; P=0.3 vs empty vector
Text: as §1

MT1-MMP (MMP-14) mRNA = test: Specificity qRT-PCR, MT1-MMP (MMP-14) mRNA in stable MDA-231 cells; settings: stable MDA-231 cell lines, 24 hour serum-free; group average ± S.D.; P=0.4 vs empty vector
Text: as §1

B1: MMP-1 shRNA: Vector-expressed small hairpin RNA, SEQ ID NO:1 (sense) and SEQ ID NO:2 (antisense), specific to bases 234-252 of MMP-1 mRNA (nucleic acid)
sense: GATCCCCACCAGATGCTGAAACCCTGTTCAAGAGACAGGGTTTCAGCATCTGGTTTTTTGGAAA
antisense: AGCTTTTCCAAAAAACCAGATGCTGAAACCCTGTCTCTTGAACAGGGTTTCAGCATCTGGTGGG
modifications: the letters are possibly those of the target site
B1 was tested, and the “Copies of MMP-1 mRNA per pg GAPDH mRNA” value (MMP-1 mRNA; Group of cell lines D1, Y2, Y7, P=0.004 vs empty vector) was 6200 ± 3200 copies per pg GAPDH mRNA, the “Copies of MMP-1 mRNA per pg GAPDH mRNA” value (MMP-1 mRNA; MDA-231 cell line D1) was 8900 ± 3600 copies per pg GAPDH mRNA and the “Copies of MMP-1 mRNA per pg GAPDH mRNA” value (MMP-1 mRNA; MDA-231 cell line Y2) was 4600 ± 2500 copies per pg GAPDH mRNA. The “Copies of MMP-1 mRNA per pg GAPDH mRNA” value (MMP-1 mRNA; MDA-231 cell line Y7) was 5000 ± 2400 copies per pg GAPDH mRNA, the “reduction in MMP-1 mRNA levels compared to empty vector cell lines” value (MMP-1 mRNA; three stable MDA-231 cell lines, 24 hour serum-free) was “greater than 90%” and the “MMP-9 mRNA level” value (MMP-9 mRNA) was 197.3 ± 106 copies of the target gene/pg GAPDH. The “MMP-1 protein in medium (western blot)” value (MMP-1 protein) was “No detectable MMP-1 protein”, the “MMP-2 mRNA level” value (MMP-2 mRNA) was 8.8 ± 7.8 copies of the target gene/pg GAPDH and the “MT1-MMP mRNA level” value (MT1-MMP (MMP-14) mRNA) was 107000 ± 46000 copies of the target gene/pg GAPDH.

Source: patent publication US7790697B2, “Compositions and methods for inhibiting the synthesis or expression of MMP-1” (Trustees of Dartmouth College, priority 2004, dated 2010)
